Data on 83 variants can be found in the RNAGym collection of RNA variant scans (doi:10.1093/molbev/msab373).

To fix the notation:
B1: Azoarcus group I ribozyme (parent)
chain: GUGCCUUGCGCCGGGAAACCACGCAAGGGAUGGUGUCAAAUUCGGCGAAACCUAAGCGCCCGCCCGGGCGUAUGGCAACGCCGAGCCAAGCUUCGGCGCCUGCGCCGAUGAAGGUGUAGAGACUAGACGGCACCCACCUAAGGCAAACGCUAUGGUGAAGGCAUAGUCCAGGGAGUGGCGAAAGUCACACAAACCGG

Variants of B1 are the subject of the series. Description: reverse-splicing fitness (ratio to wild type); higher = more active; in vitro selection; Mg2+ level not given. In outline: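 An in vitro group I ribozyme library with randomized positions was T7-transcribed and gel-purified. In triplicate, 10 pmol RNA in EPPS pH 7.5 was reacted with 50 pmoles of a 30-nt RNA substrate for 1 h at 37 °C across several added MgCl2 levels (1–48 mM), then stopped with EDTA. Products were reverse transcribed from a substrate-complementary primer, PCR-amplified and sequenced (HiSeq 4000). Fitness is a variant's read proportion after selection over that before, normalised to wild type.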
Take C82A A120U A145U U176C: the reverse-splicing fitness amounted to 0.0582.

C82A A120U C169A U176A: the reverse-splicing fitness is 0.00254.

In the case of C82A A120U C169A U176C, the reverse-splicing fitness stood at 0.00197. Then C82A A120U C169A U176G, with 0.00137; and C82A A120U A145G C150A C169A U176G, with 0.00236. Under C82A A120U A145G C150A C169A U176A stands 0.0062; under C82A A120U A145G C150A C169A U176C, 0.00397. Under C82A A120U A145G C150U C169G stands 0.00684; under C82A A120U A145G C150U C169A, 0.00691. Regarding C82A A120U A145G C150U C169U, the reverse-splicing fitness came out at 0.00646.

In the case of C82A A145C C150U C169U U176G, the reverse-splicing fitness amounted to 0.00481. Under C82A A145C C150U C169U U176A stands 0.0125.

As to C82A A145C C150U C169U U176C, the reverse-splicing fitness stood at 0.00806. As to C82A A120U A145C C169G U176G, the reverse-splicing fitness came to 0.00139.

Consider C82A A120U A145C C169G U176C, for which the reverse-splicing fitness came out at 0.00235. Under C82A A120U A145C C169G U176A stands 0.00227; under C82A A120U A145C C150U C169G U176G, 0.00196. Then C82A A120U A145C C150U C169G U176A, with 0.00237; and C82A A120U A145C C150U C169G U176C, with 0.00201; and C82A A120U A145U C150A C169A U176C, with 0.00188. Then C82A A120U A145U C150A C169A U176A, with 0.0022; and C82A A120U A145U C150A C169A U176G, with 0.00186; and C82A A120U A145C, with 0.128. For the variant C82A A120U A145U, the reverse-splicing fitness came out at 0.148. Under C82A A120U A145G stands 0.142; under C82A A120U A145U C169G, 0.00509. Under C82A A120U A145U C169A stands 0.00202; under C82A A120U A145U C169U, 0.0055. Under C82A A120U A145G C150U C169G U176G stands 0.00214; under C82A A120U A145G C150U C169G U176A, 0.00591; under C82A A120U A145G C150U C169G U176C, 0.0042. On to C82A A120U A145G C150G C169G U176A, for which the reverse-splicing fitness amounted to 0.00824. Under C82A A120U A145G C150G C169G U176G stands 0.00415. Under C82A A120U A145G C150G C169G U176C stands 0.00694; under C82A A120U A145C C169A, 0.00194.

Consider C82A A120U A145C C169U, for which the reverse-splicing fitness came to 0.00406. Under C82A A120U A145C C169G stands 0.0041; under C82A A120U A145G C169A, 0.00287. As to C82A A120U A145G C169G, the reverse-splicing fitness amounted to 0.00528. Turning to C82A A120U A145G C169U, the reverse-splicing fitness was determined as 0.0064. Under C82A A120U A145G C150A U176C stands 0.0142; under C82A A120U A145G C150A U176A, 0.0103; under C82A A120U A145G C150A U176G, 0.00391.

As for C82A A120U C150A U176C, the reverse-splicing fitness was 0.00899. Then C82A A120U C150A U176G, with 0.00257; and C82A A120U C150A U176A, with 0.00729; and C82A A120U C169G U176A, with 0.00261. Under C82A A120U C169G U176C stands 0.00323; under C82A A120U C169G U176G, 0.00153; under C82A A120U A145C C150G C169A, 0.00259. Then C82A A120U A145C C150G C169U, with 0.00298; and C82A A120U A145C C150G C169G, with 0.0026; and C82A A120U C150U C169U U176A, with 0.00458. For C82A A120U C150U C169U U176C, the reverse-splicing fitness was 0.00368. Then C82A A120U C150U C169U U176G, with 0.00199; and C82A A120U A145U C150A U176G, with 0.00276; and C82A A120U A145U C150A U176C, with 0.0092. Then C82A A120U A145U C150A U176A, with 0.00611; and C82A A145C C150A C169A, with 0.00702. Turning to C82A A145C C150A C169G, the reverse-splicing fitness was 0.00755. In the case of C82A A145C C150A C169U, the reverse-splicing fitness came to 0.00913. C82A A145C C150G U176G: the reverse-splicing fitness is 0.00808.

As to C82A A145C C150G U176A, the reverse-splicing fitness is 0.0383. Under C82A A145C C150G U176C stands 0.0535; under C82A A120U A145U C150G C169G U176A, 0.00253. Under C82A A120U A145U C150G C169G U176C stands 0.00221; under C82A A120U A145U C150G C169G U176G, 0.00188.

Turning to C82A A145C C150U C169G U176A, the reverse-splicing fitness was 0.0196.

With C82A A145C C150U C169G U176C, the reverse-splicing fitness stood at 0.0113. C82A A145C C150U C169G U176G: the reverse-splicing fitness was determined as 0.00628. Under C82A A120U A145G C169U U176C stands 0.00364. Take C82A A120U A145G C169U U176A: the reverse-splicing fitness was 0.00354. Take C82A A120U A145G C169U U176G: the reverse-splicing fitness was found to be 0.00139.

In the case of C82A A120U A145U C150U C169G U176A, the reverse-splicing fitness came out at 0.00257. Under C82A A120U A145U C150U C169G U176C stands 0.00288.

C82A A120U A145U C150U C169G U176G: the reverse-splicing fitness stood at 0.00197. Then C82A A120U A145C C150U C169U, with 0.00313. Then C82A A120U A145C C150U C169G, with 0.00276; and C82A A120U A145C C150U C169A, with 0.00197; and C82A A145C C150U C169A U176C, with 0.00606. Then C82A A145C C150U C169A U176A, with 0.0106.

Take C82A A145C C150U C169A U176G: the reverse-splicing fitness turned out to be 0.00598. On to C82A A120U A145U C150A C169G, for which the reverse-splicing fitness turned out to be 0.00217.
